Assay results taken from the RNAGym collection of RNA variant scans (doi:10.1073/pnas.2313332121).
Fewer inactive variants are shown than the library holds.

B1: TPR 5TU (parent)
chain: GGAUCUUCUCGAUCUAACAAAAAAGACAAAUCUGCCACAAAGCUUGAGAGCAUCUUCGGAUGCAGAGGCGGCAGCCUUCGGUGGCGCGAUAGCGCCAACGUUCUCAACUAUGACACGCAAAACGCGUGCUCCGUUGAAUGGAGUUUAUCAUG

Variants of: B1
Assay: polymerase ribozyme fitness, log enrichment relative to wild type (log ratio); higher = more active; in vitro selection for triplet polymerase activity
In short: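 Each subunit of a heterodimeric triplet polymerase ribozyme was mutagenized into a library by PCR, transcribed, and subjected to one round of in vitro selection, run in triplicate. Libraries were annealed with a biotinylated primer, the partner subunit and triplets, incubated frozen at −7 °C, and extended constructs were gel-excised, captured on streptavidin beads and recovered by RT-PCR. Input and output libraries were sequenced on Illumina, keeping genotypes with ≥10 input reads and ≥1 read per output. Fitness is log base 2 of genotype enrichment divided by wild-type enrichment, from inverse-variance-weighted replicate averages.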

Row | Variant | polymerase ribozyme fitness (log ratio)
1 | GGAUCUUCUCGAUCUAACUAAAAAGACAAAUCUGCCACAACGCUUGAGAGCAUCUUCAGAUGCAGAGGCGGCAGCCUUCGGUGGGGCGAUAGCGCCAACGUUCUCAACUAUGACACGCAAAACGCGUGCUCCGUUGAAUGGAGUUUAUCAUG [A19U A41C G58A C85G] | -2.71
2 | GGAUCUUCUCGAUCUAACUAAAGAGACAAAUCUGCCACAAAGCUUGAGAGCAUCUUCGGAUGCAGAGGCGGCAGCCUUCGGUGGCGCGAGAGCGCCAACGUUCUCAACUAUGACACGCAAAACGCGUGCUCCGUUGAAUGGAGUUUAUCAUG [A19U A23G U90G] | -3.99
3 | GGAUCUUCUCGAUCUAACUAAAAAGACAAAUCUGCCACACAGCUUGAGAGCAUCUUCGGAUGCAGAGGCGGCAGCCUUCGCUGGCGCGAUAGCGCGAACGUUCUCAACUAUGACACGCAAAACGCGUGCUCCGUUGAAUGGAGUUUAUCAUG [A19U A40C G81C C96G] | -1.25
4 | GGAUCUUCUCGAUCUAACUAAAAAGCCAAUUCUGUCACAAUGCUUGAGAGCAUCUUCGGAUGCAGAGGCGGCAGCCUUCGGUGACGCGAUAGCGCCAACGUUCUCAACUAUGACACGCAAAACGCGUGCUCCGUAGAAUGGAGUUUAUCAUG [A19U A26C A30U C35U A41U G84A U135A] | ≤ -4.2
5 | GGAUCUUCUCGAUCUAACUAAAAAGACAACUCUGCCACAAAGCUUGAGAGCAUCUUCGGAUGCAGAGGCGGCAGCCUUCGGUGGCGCGAUAGCGGCAACGUUCUCAACUAUGACACGCAAAACGCGUGCUCCGUUGAAUGGAGUUUAUCAUG [A19U A30C C95G] | ≤ -4.2
6 | GGAUCUUCUCGAUCUAACUAAACAGAAAAAUCUGCCACAAAGCUUGAGAGCAUCUUCGGAUGCAGAGGCGGCAGCCUUCGGUGGAGCGAUAGCGCCAACGUUCUCAACUAUGACACGCAAAACGCGUGCUCCGUUGAAUGGAGUUUAUCAUG [A19U A23C C27A C85A] | ≤ -4.2
7 | GGAUCUUCUCGAUCUAACUAAAAAGACAAAUCUGCCCCAAAGCUUGAGAGCAUCUUCGGAUGCAGAGGCGGCAGCCUUCGGUGGCGCGAUAGCGCCAACGUUCUCAACUAUGACACGCAAAACGCGUGCUCCGUGGAAUGGAGUUUAUCAUG [A19U A37C U135G] | -3.82
8 | GGAUCUUCUCGAUCUAACUAACAAGACAAAUCUGCCACACAGGUUGAGAGCAUCUUCGGAUGCAGCGGCGGCAGCCUUCGGUGGCGCGAUAGCGACAACGUUCUCAACUAUGACACGCAAAACGCGUGCUCCGUUGAAUGUAGUUUAUCAUA [A19U A22C A40C C43G A66C C95A G141U G152A] | -3.6
9 | GGAUCUUCUCGAUCUAACUAAGAAGACAAAUCUGCCACCAAGCUUGAGAGCAUCUUCGGAUGCAGAGGCGGCAGCCUUGGGUGGCGCGAUAGCGCCAACGUUCUCAACUAUGACACGCAAAACGCGUGCUCCGUUGAAUGGAGUUUAUCAUG [A19U A22G A39C C79G] | ≤ -4.2
10 | GGAUCUUCUCGAUCUAACUAAAAAGACAAUUCUGCCACAAAGCUUGAGAGCAUCUUCGGAUCCACAGGCGGCAGCCUUCGGUGGCGCGAUAGCGCAAACGUUCUCAACUAUGACACGCAAAACGCGUGCUCCGUUGAAUGGAGUUUAUCAUG [A19U A30U G62C G65C C96A] | ≤ -4.2
11 | GGAUCUUCUCGAUCUAACUAAAACGACAAAUCUGUCACAAAGCUUGAGAGCAUCUUUGGAUGCAGCGGCGGCAGCCUUCGGUGGCUCGAUAGCGCCAACGUUCUCAACUAUGACACGCAAAACGCGUGCUCCGUUGAAUGGAGUUUAUCAUG [A19U A24C C35U C57U A66C G86U] | -4.08
12 | GGAUCUUCUCGAUCUAACUAAAAAGACAAAUCUGCCACAGAGCUUGAGAGCAUCUUCGGAUGCAGAGGCGGCAGCCUUCGGUGGCGCGAUAGCGCCAACGGUCUCAACUAUGACACGCAAAACGCGUGCUCCGUUGAAUGGAGUUUAUCAUG [A19U A40G U101G] | -3.45
13 | GGAUCUUCUCGAUCUAACUAAAAAGACAAAUCUGCCACAAAGCUUGGGAGCAGCUUCGGAUGCAGACGCGGCAGCCUUCGGUGGCGCGAUAGCGCCAAUGUUCUCAACUAUGACACGCAAAACGCGUGCUCCGUUGAAUGGCGUUUCUCAUG [A19U A47G U53G G67C C99U A142C A147C] | ≤ -4.2
14 | GGAUCUUCUCGAUCUAACUAUAAAGACAAAUCUGCCACAAAGCUUGAGAGCAUCUUCGGAUGCAGAGGCGGCAGCCUUCGGUGGCACGAUAGCGCCAACGUUUUCAACUAUGACACGCAAAACGCGUGCUCCGUUGAAUGGAGUUUAUCAUG [A19U A21U G86A C103U] | -2.31
15 | GGAUCUUCUCGAUCUAACUAGAAAGACAAAUCUGCCACAAAGCUGGAGAGCAUCUACGGAUGCAGAGGCGGCAGCCUUCGGUGGCGCGAUAUCGCCAACGUUCUCAACUAUGACACGCAAAACGCGUGCUCCGUUGAAUGGAGUUUAUCAUG [A19U A21G U45G U56A G92U] | -1.94
16 | GGAUCUUCUCGAUCUAACUAAAAAGACAAAUCUGCCACAAAGCUUGAGCGCAUCUUCGGAUGCAGAGGUGGCAGCCGUAGGUGACGCGAUAGCGCCAAAGUUCUCAACUAUGCGACGCAAAACGCGUGCUCCGUUGAAUGGCGUUUAUCAUG [A19U A49C C69U U77G C79A G84A C99A A113C C114G A142C] | ≤ -4.2
17 | GGAUCUUCUCGAUCUAACUAACAAGACAAAUCUGCCACAAAGCUUGAGAGCAUCUUCGGAUGCAGAGGCGGCAGCCUUCGGUGGCGCGAUAGCCCGAACGUUCUCAACUAUGACACGCAAAAUGCGUACUCCGUUGAACGGAGUUCAUCAUG [A19U A22C G94C C96G C123U G128A U139C U146C] | ≤ -4.2
18 | GGAUCUUCUCGAUCUAACUAUAAAGACAAAUCUGCCACAAAGCUUGAGAGCAUCUUCGGAUGCAGAGGCGGCAGCCUUCGGUGGGGCGAUAGCGCCAACGUUCUCAACUAUGACACGCAAAACGCGUGCUCCGUUGAAUGGAGUUUAUCAUG [A19U A21U C85G] | -2.46
19 | GGAUCUUCUCGAUCUAACUACAAAGACAAAUCUGCCACAAAGCUUGAGAGCAUCUUCGGAUGCAGAGGCGGCAGCCUUCGGUGGCGCGAUAGCGCCAACGUUCUCAACUAUGACACGCAAAACGCGUGCUCCGUUGAAUGGAGUUUAUCAUG [A19U A21C] | -0.908
